Assay results from the supplement of paper PMC10567573.
± gives the standard deviation.

Experiment: protein stability index of a GFP-peptide fusion (GPS, HEK-293T) (PSI 1-6); higher = more stable
[1] = treatment: DMSO, c terminus: a fixed tail appended
[2] = treatment: MLN4924 1 uM, 8 h, c terminus: a fixed tail appended
[3] = treatment: DMSO, c terminus: native
[4] = treatment: MLN4924 1 uM, 8 h, c terminus: native
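Also: 24-mer peptide tiles fused after GFP, lentivirally expressed, FACS-sorted into six equal bins by GFP/DsRed ratio, decoded by Illumina sequencing, PSI is the read-weighted mean bin number.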

Row | Sequence | protein stability index [1] | protein stability index [2] | protein stability index [3] | protein stability index [4]
1 | DKFQWLAGLAPPSLFARAMQVLVT [ANKRD9] | 2.56 ± 0.44 | 2.29 ± 0.15 |  | 
2 | LAEGVSASLHTLLGDPCPMLESPG [HDAC6] | 4 ± 0.28 | 4.17 ± 0.29 |  | 
3 | KIANLGSCNDSKLEFRSFWELIGE [S100A14] | 1.91 ± 0.33 | 2.11 ± 0.38 |  | 
4 | WPRNPPSRLLGAAAGQRSRPSTYY [DNAJC4] | 3.24 ± 0.25 | 3.67 ± 0.4 |  | 
5 | HNTVKLGAFQAQEKELVFDIDMTD [PRIM1] | 4.22 ± 0.19 | 4.52 ± 0.28 |  | 
6 | GAPTSLQTEPQDRSPAPMSCDKST [BCL2L11] | 5.36 ± 0.3 | 5.36 ± 0.1 |  | 
7 | SGTCSPLRHSFQKQQREKTRWLNS [ADD1] | 2.96 ± 0.26 | 3.11 ± 0.059 |  | 
8 | EDFTNTLRELGHAEHEITELTATF [PKD2L1] | 4.43 ± 0.34 | 4.22 ± 0.091 |  | 
9 | KNTTYDLIANIVHDGKPSEGSYRI [USP39] | 2.62 ± 0.4 | 2.52 ± 0.32 |  | 
10 | AHLPKAQLSGYAVEATRNQSQLQR [FBF1] | 4.21 ± 0.044 | 4.08 ± 0.2 |  | 
11 | GVRESETEQGFGEDLEDLGAVAPP [NFE2L1] | 5.763 ± 0.026 | 5.9 ± 0.1 |  | 
12 | SLLNKKADGVKPQTNSTKNSAAAT [CAMK2B] | 4.43 ± 0.055 | 4.34 ± 0.23 |  | 
13 | ADSVITVGRGEVVTVRVPTHEEGS [ACBD3] | 4.88 ± 0.2 | 4.88 ± 0.16 |  | 
14 | FDFDDDGTLNREDLSRLVNCLTGE [CIB1] | 4.21 ± 0.21 | 4.29 ± 0.34 |  | 
15 | FEYSTIKCRDLSALMHELSNDGAR [BTBD10] | 2.53 ± 0.31 | 2.57 ± 0.41 |  | 
16 | PDGVWAYNRGEHPIFVNSPTLDAP [SMAD6] | 3.56 ± 0.34 | 3.62 ± 0.16 |  | 
17 | DLLKFEKKFQSEKAAGSVSKSTQF [FIS1] | 3.82 ± 0.18 | 3.53 ± 0.18 |  | 
18 | MHGNEALGRELMLQLSEFLCEEFR [CPN1] | 2.24 ± 0.49 | 2.67 ± 0.22 |  | 
19 | TKSHSFRAMCQNGKLVYPSCEEK [CFHR2] |  |  | 3.813 ± 0.01 | 4.09 ± 0.12
20 | DRAAKRLSLESEGAGEGAAASPEL [TPPP] | 5.38 ± 0.14 | 5.32 ± 0.37 |  | 
21 | AGISPLQQMVASGTGAVVTSLFMT [SLC25A39] | 2.02 ± 0.57 | 2.17 ± 0.5 |  | 
22 | DLRSGTLYSLTLYGLRGPHKADSI [TNXB] | 2.16 ± 0.48 | 1.95 ± 0.27 |  | 
23 | TSRRSGVGLAVVNGQLMAVGGFDG [KLHL20] | 2.99 ± 0.23 | 2.94 ± 0.41 |  | 

Row | Sequence | protein stability index [1] | protein stability index [2] | protein stability index [3] | protein stability index [4]
24 | EWAALGNMSKEDAMVEFVKLLNRC [ACBD3] | 2.48 ± 0.22 | 2.59 ± 0.3 |  | 
25 | GGGADTGTGGEEVEALQLSARWLE [FBXO33] | 4.91 ± 0.41 | 5.03 ± 0.43 |  | 
26 | TAERITQLSAPHCKKLSLELGGKN [ALDH8A1] | 3.75 ± 0.21 | 3.98 ± 0.19 |  | 
27 | GRVLLANSTQADEGKTKKGVLEAP [FBXO34] | 5.01 ± 0.17 | 4.9 ± 0.13 |  | 
28 | HRDMKPDNILLDEHDTWLSYKSH [STK32A] |  |  | 3.68 ± 0.27 | 3.94 ± 0.27
29 | AIHYCASTSEESWTDSEVDSSCSG [SPDEF] | 5.28 ± 0.2 | 5.18 ± 0.37 |  | 
30 | FEFEVRVCDSCHEAITDEERAPTA [WDFY2] | 3.48 ± 0.33 | 3.57 ± 0.086 |  | 
31 | RASPTRTAPLPMPEGPEPAAPGKQ [ELOA2] | 5.4 ± 0.14 | 5.66 ± 0.1 |  | 
32 | SEEAVQKLATCYFFTVEFGLCKQD [TPH1] | 2.3 ± 0.61 | 2.27 ± 0.13 |  | 
33 | KCCGMRNTDVSMENMVTVGFFSCM [KCNK9] | 2.59 ± 0.48 | 2.51 ± 0.44 |  | 
34 | MATATPVPPRMGSRAGGPTTPLSP [LMNB1] | 4.21 ± 0.17 | 4.24 ± 0.29 |  | 
35 | QTWVRDHHPENGEEAVTVLEDLES [ZNF24] | 5.34 ± 0.21 | 5.43 ± 0.17 |  | 
36 | EQHNWNIEAAVQDRLNEQEGVPSV [FAF2] | 5.05 ± 0.22 | 5.17 ± 0.32 |  | 
37 | DNIKYQPKGGQVQIVTKKIDLSHV [MAP2] | 3.34 ± 0.38 | 3.47 ± 0.3 |  | 
38 | QGHLRRLRSRYSVASFKFDAGEVS [MYORG] | 2.93 ± 0.26 | 3.27 ± 0.33 |  | 
39 | AMVTADSKYCYGPQGSRSPYIPPH [FKBP8] | 3.27 ± 0.42 | 3.13 ± 0.26 |  | 
40 | GTDRIVKIWDMTPVVGCSLATGFS [WDFY1] | 2.66 ± 0.16 | 2.79 ± 0.48 |  | 
41 | SSAASLIDFLRVVRNQQSLAVSNM [PTPN9] | 2.26 ± 0.43 | 2.1 ± 0.26 |  | 
42 | ELLTGQPLWPGKSDVDQLYLIIRT [CDKL4] | 2.31 ± 0.69 | 2.24 ± 0.43 |  | 
43 | FIYMVLSLFIALITGAYDTIKHPG [MCOLN1] | 2.94 ± 0.21 | 2.85 ± 0.28 |  | 
44 | DSLHPRPPYLPLAVPEDLADRLVR [FUT8] | 4.14 ± 0.13 | 4.06 ± 0.14 |  | 
45 | HVMNPLETLSITNCRLSEGDVMHL [PRAME] | 2.54 ± 0.79 | 2.4 ± 0.24 |  | 
46 | PFREQSFLCAAGDAGEESRVQVLK [TIAF1] | 4.54 ± 0.25 | 4.6 ± 0.16 |  | 

Row | Sequence | protein stability index [1] | protein stability index [2] | protein stability index [3] | protein stability index [4]
47 | LSGASPFLGETKQETLTNISAVNY [DAPK3] | 3.73 ± 0.2 | 3.85 ± 0.25 |  | 
48 | TQLTQNAVSCPYLPSNLLKKFRSS [KCNA4] | 3.32 ± 0.37 | 3.39 ± 0.2 |  | 
49 | DKVRALEEANADLEVKIHDWYQKQ [KRT15] | 4.4 ± 0.24 | 4.3 ± 0.36 |  | 
50 | GTVHCQIVSTQITRPSGNNGNRRR [PHTF1] | 4.25 ± 0.18 | 4.51 ± 0.21 |  | 
51 | PQELINYVQTVDFMRTDNTCVNLL [KLHL13] | 2.46 ± 0.35 | 2.51 ± 0.42 |  | 
52 | VEKLLREEAEGARWTSYRFSRVCR [TRIM35] | 2.89 ± 0.28 | 3.22 ± 0.2 |  | 
53 | GFSCNQGRYPLIQTLRQELSLPYL [CHIT1] | 2.16 ± 0.33 | 2.4 ± 0.24 |  | 
54 | RDTTGVSQMFPSSKARTKSLLGDD [FBF1] | 4.83 ± 0.056 | 4.82 ± 0.14 |  | 
55 | DRTWTLCGTPEYLAPEVIQSKGHG [PRKX] | 3.91 ± 0.48 | 3.97 ± 0.35 |  | 
56 | PHTPGKPTSSCTSRSAPPGLQAPP [FOXJ1] | 4.42 ± 0.19 | 4.86 ± 0.18 |  | 
57 | YCAKLCEPQWFYEETESSDDVEVL [C8orf76] | 2.98 ± 0.67 | 3.6 ± 0.79 |  | 
58 | IFNHERFFWHLTLPERRGTCADRD [CASP6] | 2.6 ± 0.21 | 2.93 ± 0.27 |  | 
59 | CPQSLPCFEASDCKESSPMPVICG [NANOGP8] | 3.77 ± 0.18 | 3.89 ± 0.083 |  | 
60 | LMSGCSSELKNRMEYALNMLLQRC [PLK2] | 2.04 ± 0.22 | 2.22 ± 0.29 |  | 
61 | KSPPQLRQFLPEEFMKTLEKTGPQ [DENND6A] | 4.63 ± 0.3 | 4.43 ± 0.32 |  | 
62 | PSLSPGAFSYSSSSRFSSSRLLGS [PRPH] | 3.29 ± 0.23 | 3.28 ± 0.16 |  | 
63 | DDEEVDTHFASQEFFSANAISDQL [ADAMTSL2] | 5.27 ± 0.23 | 5.21 ± 0.15 |  | 
64 | RVDFEEFVELIGPKLREETAHMLG [CABP4] | 2.58 ± 0.25 | 2.73 ± 0.39 |  | 
65 | LYPNPRERSSFYSCAGGRLFQQSC [CHIT1] | 1.94 ± 0.21 | 2.37 ± 0.43 |  | 
66 | DLLHGPECRSSVTSDSEGAHVNTL [PHTF1] | 4.33 ± 0.14 | 4.61 ± 0.35 |  | 
67 | GLSQAPQPLADEGPPGRSIGGAAP [SERTAD1] | 5.05 ± 0.31 | 5.29 ± 0.21 |  | 
68 | DQGGPVEILPFLYLGSAYHASKCE [DUSP5] | 2.34 ± 0.27 | 2.43 ± 0.14 |  | 
69 | THLEAQNRIKGCHDHLTLSVSRPE [PDLIM4] | 3.57 ± 0.18 | 3.66 ± 0.23 |  | 

Row | Sequence | protein stability index [1] | protein stability index [2] | protein stability index [3] | protein stability index [4]
70 | KVNLCGHWYYSKACCRSCRPPHS [ADAMTSL2] |  |  | 2.86 ± 0.57 | 3.17 ± 0.54
71 | GSSRSPGSKARAEGRGPVTPLHLD [PLEKHN1] | 4.91 ± 0.16 | 4.74 ± 0.21 |  | 
72 | NSESWGWDIGRGKLYHQSKGPGAP [SPSB2] | 3.63 ± 0.17 | 3.98 ± 0.25 |  | 
73 | SLLVHGFKPACMSEIKNLERYMCS [TENT5D] | 2.48 ± 0.41 | 2.41 ± 0.29 |  | 
74 | LIHKADEVTLSEAGSTAGAAETRG [PALM] | 5.31 ± 0.2 | 5.18 ± 0.15 |  | 
75 | EHIYDLRSLENYHFVDEHGKDQGI [CLINT1] | 4.1 ± 0.25 | 4.08 ± 0.1 |  | 
76 | IKKIEEHAPGVPKILVGNRLHLAF [RAB40A] | 2.39 ± 0.5 | 2.27 ± 0.2 |  | 
77 | LDQLLHYRKKSAEFPDFYDSEEPV [CHGB] | 3.96 ± 0.34 | 4 ± 0.15 |  | 
78 | LLRFAQVFSQMIHLNETVKAPDIE [FEM1B] | 2.67 ± 1.1 | 2.46 ± 0.85 |  | 
79 | EDQKLQVLLTQIESKKHQVETAFE [TRIM15] | 4.29 ± 0.22 | 4.51 ± 0.29 |  | 
80 | RYRGLGLLASVPSNPNGNGGFMGY [CRY1] | 2.53 ± 0.14 | 2.91 ± 0.19 |  | 
81 | FLMDLPSAGRSMPEASDQEEHLSP [RNF180] | 4.82 ± 0.21 | 5.08 ± 0.14 |  | 
82 | IQGYRVYYTMDPTQHVNNWMKHNV [PTPRD] | 2.55 ± 0.25 | 2.44 ± 0.47 |  | 
83 | SSEKLNLQKDLETRPTQHELRLYK [CEP70] | 4.12 ± 0.16 | 4.1 ± 0.36 |  | 
84 | RQLDPSNCLGIRAFADTHSCRELL [KLHL20] | 3.07 ± 0.32 | 3.23 ± 0.3 |  | 
85 | NGDVSAPSAILRTPESTKPGPVCQ [ANKRD40] | 4.782 ± 0.036 | 4.83 ± 0.13 |  | 
86 | GIVESIQIMKEGKATASEAVDCKW [NETO1] | 3.71 ± 1.3 | 3.99 ± 0.2 |  | 
87 | MAAGSTTLHAVEKLQVRLATKTEP [ELOA2] | 3.62 ± 0.23 | 3.61 ± 0.36 |  | 
88 | FQFLSWPDYGVPSSAASLIDFLRV [PTPN9] | 2.7 ± 0.36 | 2.53 ± 0.41 |  | 
89 | PCQKSPNGVRVFPPAMPPPATHLS [TRIM9] | 3.63 ± 0.31 | 3.78 ± 0.15 |  | 
